Reference: patent US20090136509A1, “Use of Toll-Like Receptor 4 Antagonists for the Treatment or Prevention of Osteoarthritic Conditions” (priority 2007, published 2009)

Assays:
TLR4 [1] = molecular target: T1, TLR4 (Homo sapiens, UniProt O00206+Q9Y6Y9); conditions: positive control; stated as known; cited from earlier work
T1 construct: alginate cultures of human chondrocytes from healthy volunteers were supplied by Articular Engineering, LLC; host or cells: primary human chondrocytes in alginate culture (healthy volunteers; osteoarthritis patients)

TLR4 [2] = molecular target: T1, TLR4; assay: 35S incorporation into S-GAG in alginate cultures of human chondrocytes from osteoarthritis patients; assay type: cell-based
Description: For these experiments, alginate cultures of human chondrocytes from healthy volunteers were supplied by Articular Engineering, LLC (Northbrook, Ill.) and were maintained as directed by the supplier. “Control” chondrocytes were untreated. “LPS” treated chondrocytes were treated with LPS at a concentration of 1 μg/ml in the media for three days starting at Day 2. “LPS+polymixin B” treated chondrocytes were treated for 1 hour with the […] polymixin B, which is a TLR4 antagonist, at a concentration of 20 μg/ml followed by treatment with the TLR4 receptor agonist LPS at a concentration of 1 μg/ml in the media for three days starting at Day 2. […] On Day 5 alginate bead chondrocyte cell cultures were ^35S labelled overnight and ^35S incorporation into S-GAG (sulfated glycosaminoglycan) was then determined as described by Bobacz et al. 56 Arthritis. […]
For these experiments, alginate cultures of human chondrocytes from osteoarthritis patients were supplied by Articular Engineering, LLC (Northbrook, Ill.) and were maintained as directed by the supplier. […] At Day 5 alginate bead chondrocyte cell cultures were ^35S labelled overnight and ^35S incorporation into S-GAG (sulfated glycosaminoglycan) was then determined as described by Bobacz et al. 56 Arthritis. […]

TLR4 [3] = molecular target: T1, TLR4; assay: 35S incorporation into S-GAG in alginate cultures of human chondrocytes from healthy volunteers; assay type: cell-based
Description: For these experiments, alginate cultures of human chondrocytes from healthy volunteers were supplied by Articular Engineering, LLC (Northbrook, Ill.) and were maintained as directed by the supplier. “Control” chondrocytes were untreated. “LPS” treated chondrocytes were treated with LPS at a concentration of 1 μg/ml in the media for three days starting at Day 2. “LPS+polymixin B” treated chondrocytes were treated for 1 hour with the […] polymixin B, which is a TLR4 antagonist, at a concentration of 20 μg/ml followed by treatment with the TLR4 receptor agonist LPS at a concentration of 1 μg/ml in the media for three days starting at Day 2. “LPS+TLR4-ECD” treated chondrocytes were treated starting at Day 0 with the TLR4 antagonist TLR4-ECD at a concentration in the media of 50 μg/ml followed by treatment with LPS at a concentration of 1 μg/ml in the media for three days starting at Day 2. TLR4-ECD is a TLR4 receptor antagonist comprising the extracellular domain of hTLR4A and the Fc domain of an IgG1 isotype antibody. TLR4-ECD has the amino acid sequence shown in SEQ ID NO: 4 and is encoded by the cDNA having the nucleic acid sequence shown in SEQ ID NO: 3. […] On Day 5 alginate bead chondrocyte cell cultures were ^35S labelled overnight and ^35S incorporation into S-GAG (sulfated glycosaminoglycan) was then determined as described by Bobacz et al. 56 Arthritis. […]

T1 sequence (O00206 24-839): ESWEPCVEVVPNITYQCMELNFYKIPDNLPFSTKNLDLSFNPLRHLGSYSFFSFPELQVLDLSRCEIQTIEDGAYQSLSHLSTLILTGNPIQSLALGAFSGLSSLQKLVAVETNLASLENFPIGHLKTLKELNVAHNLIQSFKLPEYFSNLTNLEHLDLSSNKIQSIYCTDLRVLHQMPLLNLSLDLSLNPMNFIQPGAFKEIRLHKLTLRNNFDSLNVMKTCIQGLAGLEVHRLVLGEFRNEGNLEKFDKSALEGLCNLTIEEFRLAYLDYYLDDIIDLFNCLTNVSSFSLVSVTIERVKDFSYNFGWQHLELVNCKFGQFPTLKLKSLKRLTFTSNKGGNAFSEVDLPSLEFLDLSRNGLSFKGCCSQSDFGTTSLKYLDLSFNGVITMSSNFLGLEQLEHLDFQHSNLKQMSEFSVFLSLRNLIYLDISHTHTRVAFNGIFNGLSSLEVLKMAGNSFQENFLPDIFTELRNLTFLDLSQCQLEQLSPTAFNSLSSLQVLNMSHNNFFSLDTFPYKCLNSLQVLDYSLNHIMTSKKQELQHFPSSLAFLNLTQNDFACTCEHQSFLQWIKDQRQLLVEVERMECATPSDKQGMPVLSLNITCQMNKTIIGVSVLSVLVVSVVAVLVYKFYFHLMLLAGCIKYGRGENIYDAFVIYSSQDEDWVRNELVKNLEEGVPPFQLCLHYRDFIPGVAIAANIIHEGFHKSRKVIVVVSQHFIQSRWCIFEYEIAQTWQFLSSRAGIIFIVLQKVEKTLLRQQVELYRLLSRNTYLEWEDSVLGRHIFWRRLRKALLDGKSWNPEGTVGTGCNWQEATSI
T1 sequence (Q9Y6Y9 17-160 limits assumed): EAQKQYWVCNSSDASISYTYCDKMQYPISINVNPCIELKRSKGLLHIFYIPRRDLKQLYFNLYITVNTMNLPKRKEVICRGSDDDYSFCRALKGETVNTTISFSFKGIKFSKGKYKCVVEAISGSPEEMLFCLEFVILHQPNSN

Substance | sGAG synthesis by human chondrocytes (TLR4 [1]) | S-GAG synthesis (TLR4 [2]; hTLR4-ECD 50 μg/ml from Day 0 + LPS 1 μg/ml from Day 2, relative to LPS alone (FIG. 19)) | S-GAG synthesis (TLR4 [2]; hTLR4-ECD alone 50 μg/ml from Day 0, relative to LPS alone (FIG. 19)) | S-GAG synthesis (TLR4 [3]; hTLR4-ECD 50 μg/ml from Day 0 + LPS 1 μg/ml from Day 2, relative to LPS alone (FIG. 18)) | S-GAG synthesis (TLR4 [3]; hTLR4-ECD alone 50 μg/ml from Day 0, relative to LPS alone (FIG. 18))
IGF1: Insulin-like Growth Factor 1, used as a positive control | stimulate sGAG synthesis | – | – | – | –
hTLR4-ECD: TLR4 receptor antagonist comprising the extracellular domain of hTLR4A and the Fc domain of an IgG1 isotype antibody; preparations contained approximately 25% MD2 | – | increased S-GAG synthesis relative to chondrocytes from osteoarthritis patients treated with LPS alone | increased S-GAG synthesis relative to chondrocytes from osteoarthritis patients treated with LPS alone | increased S-GAG synthesis relative to chondrocytes treated with LPS alone | increased S-GAG synthesis relative to chondrocytes treated with LPS alone
